B1: Tensin-3 (Homo sapiens), Q68CZ2 (parent)
chain: MEEGHGLDLTYITERIIAVSFPAGCSEESYLHNLQEVTRMLKSKHGDNYLVLNLSEKRYDLTKLNPKIMDVGWPELHAPPLDKMCTICKAQESWLNSNLQHVVVIHCRGGKGRIGVVISSYMHFTNVSASADQALDRFAMKKFYDDKVSALMQPSQKRYVQFLSGLLSGSVKMNASPLFLHFVILHGTPNFDTGGVCRPFLKLYQAMQPVYTSGIYNVGPENPSRICIVIEPAQLLKGDVMVKCYHKKYRSATRDVIFRLQFHTGAVQGYGLVFGKEDLDNASKDDRFPDYGKVELVFSATPEKIQGSEHLYNDHGVIVDYNTTDPLIRWDSYENLSADGEVLHTQGPVDGSLYAKVRKKSSSDPGIPGGPQAIPATNSPDHSDHTLSVSSDSGHSTASARTDKTEERLAPGTRRGLSAQEKAELDQLLSGFGLEDPGSSLKEMTDARSKYSGTRHVVPAQVHVNGDAALKDRETDILDDEMPHHDLHSVDSLGTLSSSEGPQSAHLGPFTCHKSSQNSLLSDGFGSNVGEDPQGTLVPDLGLGMDGPYERERTFGSREPKQPQPLLRKPSVSAQMQAYGQSSYSTQTWVRQQQMVVAHQYSFAPDGEARLVSRCPADNPGLVQAQPRVPLTPTRGTSSRVAVQRGVGSGPHPPDTQQPSPSKAFKPRFPGDQVVNGAGPELSTGPSPGSPTLDIDQSIEQLNRLILELDPTFEPIPTHMNALGSQANGSVSPDSVGGGLRASSRLPDTGEGPSRATGRQGSSAEQPLGGRLRKLSLGQYDNDAGGQLPFSKCAWGKAGVDYAPNLPPFPSPADVKETMTPGYPQDLDIIDGRILSSKESMCSTPAFPVSPETPYVKTALRHPPFSPPEPPLSSPASQHKGGREPRSCPETLTHAVGMSESPIGPKSTMLRADASSTPSFQQAFASSCTISSNGPGQRRESSSSAERQWVESSPKPMVSLLGSGRPTGSPLSAEFSGTRKDSPVLSCFPPSELQAPFHSHELSLAEPPDSLAPPSSQAFLGFGTAPVGSGLPPEEDLGALLANSHGASPTPSIPLTATGAADNGFLSHNFLTVAPGHSSHHSPGLQGQGVTLPGQPPLPEKKRASEGDRSLGSVSPSSSGFSSPHSGSTISIPFPNVLPDFSKASEAASPLPDSPGDKLVIVKFVQDTSKFWYKADISREQAIAMLKDKEPGSFIVRDSHSFRGAYGLAMKVATPPPSVLQLNKKAGDLANELVRHFLIECTPKGVRLKGCSNEPYFGSLTALVCQHSITPLALPCKLLIPERDPLEEIAESSPQTAANSAAELLKQGAACNVWYLNSVEMESLTGHQAIQKALSITLVQEPPPVSTVVHFKVSAQGITLTDNQRKLFFRRHYPVNSVIFCALDPQDRKWIKDGPSSKVFGFVARKQGSATDNVCHLFAEHDPEQPASAIVNFVSKVMIGSPKKV
partner: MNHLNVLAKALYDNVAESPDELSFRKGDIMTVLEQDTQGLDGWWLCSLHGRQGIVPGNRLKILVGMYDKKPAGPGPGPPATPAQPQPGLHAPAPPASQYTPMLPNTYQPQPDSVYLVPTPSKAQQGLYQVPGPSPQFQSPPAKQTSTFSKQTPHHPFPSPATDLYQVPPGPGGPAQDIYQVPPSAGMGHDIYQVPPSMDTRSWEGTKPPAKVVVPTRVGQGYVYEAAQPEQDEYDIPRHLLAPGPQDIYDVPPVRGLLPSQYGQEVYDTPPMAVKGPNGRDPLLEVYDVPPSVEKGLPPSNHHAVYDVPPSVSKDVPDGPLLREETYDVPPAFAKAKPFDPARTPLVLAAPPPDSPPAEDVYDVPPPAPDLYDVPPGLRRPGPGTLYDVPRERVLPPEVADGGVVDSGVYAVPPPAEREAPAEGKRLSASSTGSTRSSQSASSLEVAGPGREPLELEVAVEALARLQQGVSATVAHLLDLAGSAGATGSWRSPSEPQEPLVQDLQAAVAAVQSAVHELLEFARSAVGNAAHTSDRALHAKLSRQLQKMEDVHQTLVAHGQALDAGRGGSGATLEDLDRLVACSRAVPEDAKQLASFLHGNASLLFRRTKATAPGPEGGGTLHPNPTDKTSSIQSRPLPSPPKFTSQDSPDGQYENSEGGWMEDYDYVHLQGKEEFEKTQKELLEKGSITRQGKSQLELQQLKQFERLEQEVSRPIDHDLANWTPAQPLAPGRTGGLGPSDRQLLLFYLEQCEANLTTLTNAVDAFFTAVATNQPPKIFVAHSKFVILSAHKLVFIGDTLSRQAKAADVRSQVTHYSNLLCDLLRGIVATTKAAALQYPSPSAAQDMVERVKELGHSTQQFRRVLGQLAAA

Variants of: B1
Conditions: with bcar1_human BCAR1, P56945

Row | effect of a mutation on the interaction | Variant
1 | decreasing interaction | Y1173F;Y1206F
